According to article PMC4041088:

Target: FLAG-tagged murine lipin 1b (murine) (UniProt Q91ZP3)
Experiment: atomic force microscopy

## FLAG-tagged murine lipin 1b (from UniProt Q91ZP3 1-924) (enzyme)
  stoichiometry N: 12
